{"source": "patent US20100016434", "proteins": {"B1": {"name": "EGLN3 in vitro translate (protein)", "chain": "MPLGHIMRLDLEKIALEYIVPCLHEVGFCYLDNFLGEVVGDCVLERVKQLHCTGALRDGQLAGPRAGVSKRHLRGDQITWIGGNEEGCEAISFLLSLIDRLVLYCGSRLGKYYVKERSKAMVACYPGNGTGYVRHVDNPNGDGRCITCIYYLNKNWDAKLHGGILRIFPEGKSFIADVEPIFDRLLFFWSDRRNPHEVQPSYATRYAMTVWYFDAEERAEAKKKFRNLTRKTESALTED"}}, "biological_target": "T1, biotinylated HIF1α peptide, Q16665", "T1 chain": "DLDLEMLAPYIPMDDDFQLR"}
{"protein": "B1", "values": [{"measurement": "EGLN3 prolyl hydroxylase activity on the HIF1α peptide, read by capture of 35S-labeled pVHL", "result": "EGLN3 hydroxylase activity was diminished in the face of increasing amount of succinate"}]}
